Molecular target: T1, D614G S2P probe (SARS-CoV-2, WA-1 with D614G, UniProt A0A6H1PJZ3, D614G | K986P | V987P, biotin on the AVI tag (…))
T1 construct: also called single mutated D614G S2P
Assay: BLI
Settings: both partners purified

B1: A19-46.1 (antibody, V domains shown)
VH: QVQLVESGGGVVQPGRSLRLSCAASGFTLSSYGMHWVRQAPGKGLEWVAVISYDGSNKYYVDSVKGRFTISRDNSKNTLYLQMNSLRAEDTAVYYCARGWAYWELLPDYYYGMDVWGQGTTVTVSS
VL: QTVVTQEPSFSVSPGGTVTLTCGLSSGSVSTAYFPSWYQQTPGQAPRTLIYGTNTRSSGVPDRFSGSILGNKAALTITGAQADDESDYYCVLYMGRGIVVFGGGTKLTVL
  binding result: binds
